Measured values taken from patent publication EP2649983A1, “Compounds which inhibit neuronal exocytosis (II)” (Lipotec, S.A., priority 2012, dated 2013).
Non-standard residues stand in square brackets, D forms with d. *: point of attachment. Met(O2) = CS(=O)(=O)CC[C@H](N)C(=O)O; Palmitoyl = CCCCCCCCCCCCCCCC(=O)*; NHhexadecyl = CCCCCCCCCCCCCCCCN*; Met(O) = CS(=O)CC[C@H](N)C(=O)O; Myristoyl = CCCCCCCCCCCCCC(=O)*

Experiments:
[1] = molecular target: SNARE complex (VAMP, syntaxin and SNAP-25 bound to GST) (UniProt P60880); test: competition ELISA: VAMP on plate, SNAP-25-GST + syntaxin, anti-GST detection; compound at 2.5 mM
[2] = molecular target: SNARE complex (VAMP, syntaxin and SNAP-25 bound to GST) (UniProt P60880); test: competition ELISA: VAMP on plate, SNAP-25-GST + syntaxin, anti-GST detection; compound at 0.5 mM
[3] = molecular target: SNARE complex (VAMP, syntaxin and SNAP-25) (UniProt P60880); test: SDS-PAGE of SNARE complex: VAMP + syntaxin + compound, then SNAP-25; image analysis; compound at 5 mM
[4] = molecular target: SNARE complex (VAMP, syntaxin and SNAP-25) (UniProt P60880); test: SDS-PAGE of SNARE complex: VAMP + syntaxin + compound, then SNAP-25; image analysis; compound at 1 mM

Chain of SNARE complex (VAMP, syntaxin and SNAP-25) (P60880 whole entry, one chain of several): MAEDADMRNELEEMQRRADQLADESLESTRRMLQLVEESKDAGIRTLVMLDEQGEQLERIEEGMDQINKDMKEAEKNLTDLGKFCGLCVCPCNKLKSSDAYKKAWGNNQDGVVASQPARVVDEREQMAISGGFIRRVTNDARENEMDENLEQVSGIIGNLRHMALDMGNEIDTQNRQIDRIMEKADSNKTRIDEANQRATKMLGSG
Chain of SNARE complex (VAMP, syntaxin and SNAP-25 bound to GST) (P60880 whole entry, one chain of several): as above

Binder | % inhibition formation SNARE complex [1] [%] | % inhibition formation SNARE complex [2] [%] | % inhibition formation SNARE complex [3] [%] | % inhibition formation SNARE complex [4] [%]
H-EHLKQWM-NH2 [H-SEQ ID NO:1-NH2] | 58 | 30 | – | –
Palmitoyl-DHFLDWM-NH2 [Palm-SEQ ID NO:25-NH2] | 53 | 24 | 85 | 36
Ac-EDLKRWM-NH2 [Ac-SEQ ID NO:14-NH2] | 67 | 43 | 100 | 83
Palmitoyl-DHFLNWM-NH2 [Palm-SEQ ID NO:34-NH2] | 51 | 19 | – | –
Ac-NDLKDWM-NH2 [Ac-SEQ ID NO:23-NH2] | 60 | 10 | – | –
Ac-NHLKNWM-NH2 [Ac-SEQ ID NO:31-NH2] | 59 | 26 | – | –
Palmitoyl-NHFLNWM-NH2 [Palm-SEQ ID NO:15-NH2] | 21 | 18 | 74 | 22
Ac-NHFLNWM-NH2 [Ac-SEQ ID NO:15-NH2] | 42 | 48 | 100 | 50
Palmitoyl-DHFQQRM-NH2 [Palm-SEQ ID NO:24-NH2] | 44 | 36 | 66 | 17
Ac-EHLKQWM-NH2 [Ac-SEQ ID NO:1-NH2] | 63 | 33 | 100 | 59
Ac-RHFLQWM-NH2 [Ac-SEQ ID NO:13-NH2] | 20 | – | – | –
Ac-QHLKEWM-NH2 [Ac-SEQ ID NO:12-NH2] | 71 | 20 | – | –
Ac-QDFLHWM-NH2 [Ac-SEQ ID NO:2-NH2] | 64 | 26 | 80 | 37
Ac-DHLKKWM-NH2 [Ac-SEQ ID NO:22-NH2] | 72 | 18 | – | –
Ac-QHLKNWM-NH2 [Ac-SEQ ID NO:27-NH2] | 14 | – | – | –
Palmitoyl-EHLKQWM-NH2 [Palm-SEQ ID NO:1-NH2] | 47 | 21 | 72 | 26
Myristoyl-NHFLNWM-NH2 [Myr-SEQ ID NO:15-NH2] | 19 | – | 76 | 23
Ac-EHLKKWM-NH2 [Ac-SEQ ID NO:8-NH2] | 44 | 11 | – | –
Ac-NHLKHWM-NH2 [Ac-SEQ ID NO:32-NH2] | 19 | – | – | –
Ac-DHFLDW[Met(O2)]-NH2 [Ac-SEQ ID NO:61-NH2] | 26 | 8 | 89 | 44
Ac-EDLKRWM-NHhexadecyl [Ac-SEQ ID NO:14-NH-(CH2)15-CH3] | 35 | 11 | 85 | 43
Palmitoyl-EDLKRWM-NH2 [Palm-SEQ ID NO:14-NH2] | 42 | 18 | 93 | 41
Ac-EHLKQWM-OH [Ac-SEQ ID NO:1-OH] | 59 | 29 | – | –
Palmitoyl-QHLHNVM-NH2 [Palm-SEQ ID NO:3-NH2] | 51 | 20 | – | –
Ac-DHFLNWM-NH2 [Ac-SEQ ID NO:34-NH2] | 85 | 27 | 59 | 14
Ac-EHFLQWM-NH2 [Ac-SEQ ID NO:30-NH2] | 71 | 24 | – | –
Ac-DHFQQRM-NH2 [Ac-SEQ ID NO:24-NH2] | 55 | 41 | 100 | 48
Ac-DHFLDWM-NH2 [Ac-SEQ ID NO:25-NH2] | 71 | 40 | 100 | 83
Ac-QHLHNVM-NH2 [Ac-SEQ ID NO:3-NH2] | 64 | 31 | – | –
Ac-DHFLDW[Met(O)]-NH2 [Ac-SEQ ID NO:56-NH2] | 64 | 16 | 91 | 40
